Changes are numbered by the printed parent chain.
B1: C1_IPN009VH2-SG4GK/IPN93L0028-SK1 (antibody, human IgG4 S228P, kappa, name in Kabat numbering, V domains shown)
VH: EVMLVESGGGLVKPGGSLRLSCAASGFTFSNYAMSWVRQAPGKGLEWVATISSGGSHTYYLDSVKGRFTISRDNSKDTLYLQMNSLRAEDTALYYCARLFTGYAMDYWGQGTLVTVSS
VL: QIVLTQSPATLSLSPGERATLSCTASSSVSSSYLHWYQQKPGKAPKLWIYSTSNLASGVPSRFSGSGSGTDYTLTISSLQPEDFATYYCHQYHRHPPITFGQGTKLEIKR
notes: also called IPN009VH2/IPN93L0028
B2: C1_IPN92H0026-SG4GK/IPN93L0023-SK1 (antibody, human IgG4 S228P, kappa, name in Kabat numbering, V domains shown)
VH: B1 VH with G66H
VL: B1 VL with H93Y
notes: also called IPN92H0026/IPN93L0023
B3: C1_IPN92H0026-SG4GK/IPN93L0021-SK1 (antibody, human IgG4 S228P, kappa, name in Kabat numbering, V domains shown)
VH: B1 VH with G66H
VL: B1 VL with H95L
notes: also called IPN92H0026/IPN93L0021
B4: C1_IPN92H0033-SG4GK/IPN93L0024-SK1 (antibody, human IgG4 S228P, kappa)
heavy: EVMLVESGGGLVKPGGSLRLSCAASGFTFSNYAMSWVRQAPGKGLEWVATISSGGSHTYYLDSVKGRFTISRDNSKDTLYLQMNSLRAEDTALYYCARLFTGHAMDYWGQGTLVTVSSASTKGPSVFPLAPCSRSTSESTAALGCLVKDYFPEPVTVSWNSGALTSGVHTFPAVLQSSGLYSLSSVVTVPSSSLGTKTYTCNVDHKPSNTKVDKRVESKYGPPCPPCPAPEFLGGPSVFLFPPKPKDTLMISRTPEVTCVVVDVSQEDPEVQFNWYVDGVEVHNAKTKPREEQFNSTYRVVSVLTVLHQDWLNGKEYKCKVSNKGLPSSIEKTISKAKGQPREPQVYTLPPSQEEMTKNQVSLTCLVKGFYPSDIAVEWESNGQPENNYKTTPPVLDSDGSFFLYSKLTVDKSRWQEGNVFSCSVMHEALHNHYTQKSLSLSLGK
light: QIVLTQSPATLSLSPGERATLSCTASSSVSSSYLHWYQQKPGKAPKLWIYSTSNLASGVPSRFSGSGSGTDYTLTISSLQPEDFATYYCHQYYRLHPITFGQGTKLEIKRTVAAPSVFIFPPSDEQLKSGTASVVCLLNNFYPREAKVQWKVDNALQSGNSQESVTEQDSKDSTYSLSSTLTLSKADYEKHKVYACEVTHQGLSSPVTKSFNRGEC
notes: also called IPN92H0033/IPN93L0024
B5: C1_IPN009VH2-SG4GK/IPN93L0031-SK1 (antibody, human IgG4 S228P, kappa, name in Kabat numbering, V domains shown)
VH: B1 VH
VL: B1 VL with P96H
notes: also called IPN009VH2/IPN93L0031
B6: C1_IPN92H0288-SG4GK/IPN93L0212-SK1 (antibody, human IgG4 S228P, kappa, name in Kabat numbering, V domains shown)
VH: B1 VH with Y60E, K65D, G102K, Y103H
VL: B1 VL with S28E, S31E, Y33R, H93Y, H95L, P96H
notes: VL substitutions from IPN009VK3, Kabat numbering; also called IPN92H0288/IPN93L0212
B7: C1_IPN009VH2-SG4GK/IPN93L0029-SK1 (antibody, human IgG4 S228P, kappa, name in Kabat numbering, V domains shown)
VH: B1 VH
VL: B1 VL with H95L, P96H
notes: also called IPN009VH2/IPN93L0029
B8: C1_IPN92H0026-SG4GK/IPN93L0024-SK1 (antibody, human IgG4 S228P, kappa, name in Kabat numbering, V domains shown)
VH: B1 VH with G66H
VL: B1 VL with H93Y, H95L, P96H
notes: also called IPN92H0026/IPN93L0024
B9: C1_IPN009VH2-SG4GK/IPN93L0030-SK1 (antibody, human IgG4 S228P, kappa, name in Kabat numbering, V domains shown)
VH: B1 VH
VL: B1 VL with H93Y, P96H
notes: also called IPN009VH2/IPN93L0030

Assays:
human C1s [1] = target: T1, human C1s (human, UniProt P09871 16-688); test: SPR, Ab captured; pH 5.8, 3 uM Ca
T1 construct: also called hC1s; serum-derived human C1s (CompTech)
T1 sequence: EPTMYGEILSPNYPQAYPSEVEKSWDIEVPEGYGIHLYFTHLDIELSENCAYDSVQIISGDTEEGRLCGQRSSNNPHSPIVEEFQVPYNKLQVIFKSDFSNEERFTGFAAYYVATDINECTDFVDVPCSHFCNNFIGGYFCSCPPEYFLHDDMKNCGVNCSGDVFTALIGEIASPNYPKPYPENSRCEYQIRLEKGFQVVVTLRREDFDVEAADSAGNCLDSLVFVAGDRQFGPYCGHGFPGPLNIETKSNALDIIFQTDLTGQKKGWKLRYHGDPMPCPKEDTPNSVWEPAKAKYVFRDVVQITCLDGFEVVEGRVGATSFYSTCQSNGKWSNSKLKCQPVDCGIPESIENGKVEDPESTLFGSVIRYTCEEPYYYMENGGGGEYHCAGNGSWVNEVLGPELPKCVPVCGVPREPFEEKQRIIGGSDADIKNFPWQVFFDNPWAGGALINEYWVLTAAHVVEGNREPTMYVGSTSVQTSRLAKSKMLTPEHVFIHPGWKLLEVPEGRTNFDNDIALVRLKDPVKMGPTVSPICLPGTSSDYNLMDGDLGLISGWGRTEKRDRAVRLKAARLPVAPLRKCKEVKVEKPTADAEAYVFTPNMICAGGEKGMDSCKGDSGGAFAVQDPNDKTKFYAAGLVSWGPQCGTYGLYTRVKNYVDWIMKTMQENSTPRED
Description: (§1) All variants were transiently expressed and purified by the method described above. The binding affinity of each histidine-substituted variant at pH 7.4 and pH 5.8 was determined at 37 degrees C. using Biacore T200 instrument (GE Healthcare). Recombinant Protein A/G (Pierce) was immobilized onto all flow cells of a CM4 sensor chip using an amine coupling kit (GE Healthcare). Antibodies and analytes were prepared in 7(+) buffer (20 mM ACES, 150 mM NaCl, 1.2 mM CaCl2, 0.05% Tween 20, 0.005% NaN3, pH 7.4), 5(+) buffer (20 mM ACES, 150 mM NaCl, 1.2 mM CaCl2, 0.05% Tween 20, 0.005% NaN3, pH 5.8), or 5(−) buffer (20 mM ACES, 150 mM NaCl, 3 micro M CaCl2, 0.05% Tween 20, 0.005% NaN3, pH 5.8). Each antibody was captured onto the sensor surface by protein A/G. Antibody capture levels were aimed at 200 resonance unit (RU). Serum-derived human C1s (CompTech) or recombinant C1s prepared in EXAMPLE 1 was injected at 50 nM, followed by dissociation. The sensor surface was regenerated in each cycle with 10 mM Glycine-HCl, pH 1.5. […] The ratio of KD 5.8+ to KD 7.4+(“KD 5+/7+”) and that of KD 5.8− to KD 7.4+(“KD 5−/7+”) were calculated. When the KD 5+/7+ or KD 5−/7+ of a variant is larger than that of the parent antibody IPN009VH2-SG4GK/IPN009VK3-SK1, that variant is considered to be “pH”- or “pH and Ca”-dependent, respectively. When binding response in 5(+) buffer and/or in 5(−) buffer of a variant is much lower than that of IPN09VH2/IPN009VK3, that variant is also considered as “pH”- and/or “pH and Ca”-dependent. Therefore, such mutations are effective to generate “pH”- and/or “pH and Ca”-dependent antibody. To further enhance “pH” and/or “pH and Ca” dependency, a combination of histidine mutations was conducted. Antibodies with combinations of histidine mutations were evaluated using Biacore by the method described above.

human C1s [2] = target: T1, human C1s; test: SPR; KD pH 5.8 3 uM Ca / KD pH 7.4 1.2 mM Ca
Description: as §1

human C1s [3] = target: T1, human C1s; test: SPR, Ab captured; pH 5.8, 1.2 mM Ca
Description: as §1

human C1s [4] = target: T1, human C1s; test: SPR, Ab captured; pH 7.4, 1.2 mM Ca
Description: as §1

human C1s [5] = target: T1, human C1s; test: SPR; KD pH 5.8 1.2 mM Ca / KD pH 7.4 1.2 mM Ca
Description: as §1

human C1s [6] = target: T1, human C1s; test: SPR, Ab captured; pH 7.4, 1.2 mM Ca; remark: listed apart in the source
Description: Each antibody was captured onto the sensor surface by protein A/G. Antibody capture levels were aimed at 200 resonance unit (RU). Serum-derived human C1s (CompTech) or recombinant C1s prepared in EXAMPLE 1 was injected at 50 nM, followed by dissociation. The sensor surface was regenerated in each cycle with 10 mM Glycine-HCl, pH 1.5. […] The ratio of KD 5.8+ to KD 7.4+(“KD 5+/7+”) and that of KD 5.8− to KD 7.4+(“KD 5−/7+”) were calculated. When the KD 5+/7+ or KD 5−/7+ of a variant is larger than that of the parent antibody IPN009VH2-SG4GK/IPN009VK3-SK1, that variant is considered to be “pH”- or “pH and Ca”-dependent, respectively. When binding response in 5(+) buffer and/or in 5(−) buffer of a variant is much lower than that of IPN09VH2/IPN009VK3, that variant is also considered as “pH”- and/or “pH and Ca”-dependent. Therefore, such mutations are effective to generate “pH”- and/or “pH and Ca”-dependent antibody. To further enhance “pH” and/or “pH and Ca” dependency, a combination of histidine mutations was conducted. Antibodies with combinations of histidine mutations were evaluated using Biacore by the method described above.
C1_1IPN92H0033 (SEQ ID NO: 17)-SG4GK/IPN93L0024 (SEQ ID NO: 18)-SK1 (IPN92H0033/IPN93L0024) was selected for further optimization. Histidine, Lysine, Arginine, aspartic acid, glutamic acid, and glutamine scanning was conducted for CDRs and certain positions of FRs of IPN92H0033/IPN93L0024. Variants with a mutation were generated and purified, and evaluated using Biacore by the method mentioned above. All variants were evaluated using Biacore as mentioned above. Mutations that improved “pH” and/or “pH and Ca” dependency were selected for the combination.

human C1s [7] = target: T2, human C1s (human, UniProt P09871 16-688); test: SPR; KD at pH 5.8 (1.2 mM Ca) over KD at pH 7.4 (1.2 mM Ca)
T2 construct: Analyte in the Biacore assays; also called hC1s; serum-derived human C1s (CompTech)
T2 sequence: T1 sequence
Summary of the method: (§2)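 Antibody captured on protein A/G (~200 RU) on Biacore T200 at 37C; serum-derived or recombinant human C1s injected at 50 nM, then dissociation. KD measured at pH 7.4 with 1.2 mM Ca and at pH 5.8 with 1.2 mM or 3 uM Ca; KD ratios pH 5.8/pH 7.4 calculated.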

human C1s [8] = target: T2, human C1s; test: SPR (Biacore T200, 37C), Ab captured on protein A/G; pH 5.8, 3 uM Ca
Summary of the method: as §2

human C1s [9] = target: T2, human C1s; test: SPR (Biacore T200, 37C), Ab captured on protein A/G; pH 5.8, 1.2 mM Ca
Summary of the method: as §2

human C1s [10] = target: T2, human C1s; test: SPR; KD at pH 5.8 (3 uM Ca) over KD at pH 7.4 (1.2 mM Ca)
Summary of the method: as §2

Binder | Kd (human C1s [1]) | koff (human C1s [1]) | kon (human C1s [1]) | KD 5(-)/7(+) (human C1s [2]) | Kd (human C1s [3]) | koff (human C1s [3]) | kon (human C1s [3]) | Kd (human C1s [4]) | koff (human C1s [4]) | kon (human C1s [4]) | KD 5(+)/7(+) (human C1s [5]) | other results
B1 | 6.66 nM | 0.00351 s⁻¹ | 528000 M⁻¹ s⁻¹ | 0.5 | 14.1 nM | 0.00751 s⁻¹ | 534000 M⁻¹ s⁻¹ | 13.9 nM | 0.00476 s⁻¹ | 343000 M⁻¹ s⁻¹ | 1 | –
B2 | 9.95 nM | 0.0619 s⁻¹ | 6.23e+06 M⁻¹ s⁻¹ | 8.6 | 1.53 nM | 0.00124 s⁻¹ | 813000 M⁻¹ s⁻¹ | 1.16 nM | 0.000608 s⁻¹ | 523000 M⁻¹ s⁻¹ | 1.3 | –
B3 | 8.12 nM | 0.17 s⁻¹ | 2.1e+07 M⁻¹ s⁻¹ | 10.1 | 1.95 nM | 0.00149 s⁻¹ | 763000 M⁻¹ s⁻¹ | 0.804 nM | 0.000472 s⁻¹ | 587000 M⁻¹ s⁻¹ | 2.4 | –
B4 | – | – | – | 1.8 | – | 0.0045 s⁻¹ | 519000 M⁻¹ s⁻¹ | – | 0.000776 s⁻¹ | 268000 M⁻¹ s⁻¹ | 3 | koff (human C1s [6]): 0.000776 s⁻¹; kon (human C1s [6]): 268000 M⁻¹ s⁻¹
B5 | – | 0.00352 s⁻¹ | 711 M⁻¹ s⁻¹ | 29500 | – | 0.0127 s⁻¹ | 532000 M⁻¹ s⁻¹ | – | 8e-06 s⁻¹ | 47600 M⁻¹ s⁻¹ | 142 | –
B6 | – | – | – | – | – | – | – | – | – | – | – | KD 5(+)/7(+) (human C1s [7]): 11.6; Kd (human C1s [8]): 6.79 nM; koff (human C1s [8]): 0.00533 s⁻¹; kon (human C1s [8]): 784000 M⁻¹ s⁻¹; Kd (human C1s [9]): 21 nM; koff (human C1s [9]): 0.0198 s⁻¹; kon (human C1s [9]): 945000 M⁻¹ s⁻¹; KD 5(-)/7(+) (human C1s [10]): 3.75
B7 | 5.54 nM | 0.00296 s⁻¹ | 534000 M⁻¹ s⁻¹ | 0.3 | 15.5 nM | 0.00857 s⁻¹ | 553000 M⁻¹ s⁻¹ | 18.2 nM | 0.00897 s⁻¹ | 494000 M⁻¹ s⁻¹ | 0.9 | –
B8 | 15.1 nM | 0.112 s⁻¹ | 7.43e+06 M⁻¹ s⁻¹ | 13.2 | 3.16 nM | 0.00143 s⁻¹ | 451000 M⁻¹ s⁻¹ | 1.14 nM | 0.00047 s⁻¹ | 412000 M⁻¹ s⁻¹ | 2.8 | –
B9 | 1.3 nM | 0.00577 s⁻¹ | 4.42e+06 M⁻¹ s⁻¹ | 0.1 | 45.6 nM | 0.0222 s⁻¹ | 487000 M⁻¹ s⁻¹ | 25.5 nM | 0.0156 s⁻¹ | 612000 M⁻¹ s⁻¹ | 1.8 | –

Reference: US20210032365A1 (Chugai, published 2021)
